According to patent US20240164355:

Biological target: Ubiquitin-AMC (Ub-AMC) (UniProt P0CG48)

Substance: CidB* (CidB-C1025A catalytic mutant)
- Ub-AMC hydrolysis: The CidB-C1025A catalytic mutant was inactive against Ub-AMC (data not shown)
